Assay results reported in publication doi:10.1101/2021.04.06.21255004.

Key:
[1] = biological target: purified human alpha globin (human) (UniProt P69905); assay: BLI
[2] = biological target: Endothelial nitric oxide synthase (Homo sapiens*) (UniProt P29474)
Sequence of Endothelial nitric oxide synthase (Homo sapiens*) (P29474 66-492): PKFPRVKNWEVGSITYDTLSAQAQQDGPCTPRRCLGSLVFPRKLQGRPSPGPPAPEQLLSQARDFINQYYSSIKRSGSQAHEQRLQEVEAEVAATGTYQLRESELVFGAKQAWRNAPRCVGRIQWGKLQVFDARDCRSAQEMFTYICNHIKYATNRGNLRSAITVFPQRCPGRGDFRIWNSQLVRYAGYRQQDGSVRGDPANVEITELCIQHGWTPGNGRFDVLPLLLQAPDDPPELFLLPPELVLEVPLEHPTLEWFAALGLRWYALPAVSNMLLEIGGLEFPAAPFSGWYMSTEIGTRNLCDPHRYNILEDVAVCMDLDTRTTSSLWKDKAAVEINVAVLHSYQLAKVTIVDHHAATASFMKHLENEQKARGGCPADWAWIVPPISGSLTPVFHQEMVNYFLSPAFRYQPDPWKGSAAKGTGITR

Sequence of Alpha globin (P69905 2-142): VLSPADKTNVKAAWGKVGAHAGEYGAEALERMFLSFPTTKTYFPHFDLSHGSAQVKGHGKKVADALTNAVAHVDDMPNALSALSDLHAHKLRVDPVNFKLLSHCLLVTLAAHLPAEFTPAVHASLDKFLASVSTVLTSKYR
Sequence of purified human alpha globin (human) (P69905 whole entry): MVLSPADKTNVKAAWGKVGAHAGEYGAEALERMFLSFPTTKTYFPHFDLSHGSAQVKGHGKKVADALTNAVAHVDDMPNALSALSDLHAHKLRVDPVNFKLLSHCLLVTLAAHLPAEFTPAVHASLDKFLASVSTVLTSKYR
Sequence of recombinant human eNOS oxidase domain (domain or fragment) (P29474 2-1203): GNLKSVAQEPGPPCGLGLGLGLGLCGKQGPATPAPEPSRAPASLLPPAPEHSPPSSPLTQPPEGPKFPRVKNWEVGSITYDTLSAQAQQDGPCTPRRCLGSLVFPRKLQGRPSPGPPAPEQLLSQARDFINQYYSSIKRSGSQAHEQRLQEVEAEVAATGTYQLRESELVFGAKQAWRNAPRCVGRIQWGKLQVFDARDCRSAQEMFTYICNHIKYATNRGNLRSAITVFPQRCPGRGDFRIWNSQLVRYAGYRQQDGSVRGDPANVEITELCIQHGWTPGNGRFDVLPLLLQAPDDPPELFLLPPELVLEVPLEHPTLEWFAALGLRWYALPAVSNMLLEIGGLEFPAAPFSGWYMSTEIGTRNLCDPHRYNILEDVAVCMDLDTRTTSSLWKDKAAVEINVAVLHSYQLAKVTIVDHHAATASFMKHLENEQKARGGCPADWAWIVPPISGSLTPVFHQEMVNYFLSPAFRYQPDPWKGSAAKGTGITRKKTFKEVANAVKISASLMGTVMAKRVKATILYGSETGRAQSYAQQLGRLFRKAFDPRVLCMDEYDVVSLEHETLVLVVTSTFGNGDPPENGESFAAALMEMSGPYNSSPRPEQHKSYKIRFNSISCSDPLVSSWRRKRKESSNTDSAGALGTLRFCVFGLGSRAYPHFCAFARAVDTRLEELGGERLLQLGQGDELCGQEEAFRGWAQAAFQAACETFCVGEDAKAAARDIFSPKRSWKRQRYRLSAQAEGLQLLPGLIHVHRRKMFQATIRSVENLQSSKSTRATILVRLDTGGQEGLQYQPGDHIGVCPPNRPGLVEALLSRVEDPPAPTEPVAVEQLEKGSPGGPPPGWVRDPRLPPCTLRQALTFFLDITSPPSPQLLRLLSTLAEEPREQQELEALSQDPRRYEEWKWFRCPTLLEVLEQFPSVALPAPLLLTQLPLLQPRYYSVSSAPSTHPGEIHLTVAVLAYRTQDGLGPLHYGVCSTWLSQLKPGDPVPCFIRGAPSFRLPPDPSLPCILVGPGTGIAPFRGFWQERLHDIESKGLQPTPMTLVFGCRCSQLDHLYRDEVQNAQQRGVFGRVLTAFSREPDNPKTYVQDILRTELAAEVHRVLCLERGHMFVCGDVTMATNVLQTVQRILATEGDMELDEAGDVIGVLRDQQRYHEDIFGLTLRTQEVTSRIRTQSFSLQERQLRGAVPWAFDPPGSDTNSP

Kd [1] [µM]	Kd [2] [µM]	Substance
1.31		recombinant human eNOS oxidase domain (domain or fragment)
	1.3	Alpha globin (from UniProt P69905)
